{"source": "patent US6570069B1", "about": "“Nucleic acids encoding plant inhibitors of apoptosis and transgenic cells and plants expressing them” (priority 2000, dated 2003)", "molecules": {"B1": {"name": "GST-SfIAP (other, not shown: a dimerising Fc or GST)", "chain": "MWSCSLPCWNTKKSGLQMDITKVASNGSSSTLTLFKSGSLEAKIRPLAPLMLPTPSYDSNAGSPSLSPSTPCSSSSFSIDKTDNHDTFGFSADTVDMRKEDERMKTFEKWPVSFLSGEQLARNGFYYLGRRDEARCAFCKVEIMRWVEGDDPAKDHQRWAPQCPFVRKLNGTAAADTGSSGQDECGARAAPSGTSPPRMAGPVHPRYASEAARLRSFKDWPRCMRQKPEELAEAGFFYTGQGDKTKCFYCDGGLKDWENHDVPWEQHARWFDRCAYVQLVKGREYVQKVISEACEVSASEAERDVAPARTAEPSPPAEAPENSVDDSKLCKICYAEERNVCFVPCGHVVACAKCALAADKCPMCRRTFQNAVRLYFS", "notes": "also called recombinant SfIAP; recombinant-purified SfIAP"}, "B2": {"name": "GST-XIAP-BIR1 (other, human, UniProt P98170 1-123, looked up, not shown: a dimerising Fc or GST)", "chain": "MTFNSFEGSKTCVPADINKEEEFVEEFNRLKTFANFPSGSPVSASTLARAGFLYTGEGDTVRCFSCHAAVDRWQYGDSAVGRHRKVSPNCRFINGFYLENSATQSTNSGIQNGQYKVENYLGS", "notes": "domain: BIR1; also called BIR1 domain of XIAP"}, "B3": {"name": "recombinant purified caspase-3 (enzyme, mammalian)", "chain": "SGISLDNSYKMDYPEMGLCIIINNKNFHKSTGMTSRSGTDVDAANLRETFRNLKYEVRNKNDLTREEIVELMRDVSKEDHSKRSSFVCVLLSHGEEGIIFGTNGPVDLKKITNFFRGDRCRSLTGKPKLFIIQACRGTELDCGIETDSGVDDDMACHKIPVEADFLYAYSTAPGYYSWRNSKDGSWFIQSLCAMLKQYADKLEFMHILTRVNRKVATEFESFSFDATFHAKKQIPCIVSMLTKELYFYHHHHHHH", "notes": "also called caspases-3"}, "B4": {"name": "GST-CpIAP (other)", "chain": "MSDLRLEEVRLNTFEKWPVSFLSPETMAKNGFYYLGRSDEVRCAFCKVEIMRWKEGEDPAADHKKWAPQCPFVKGIDVCGSIVTTNNIQNTTTHDTIIGPAHPKYAHEAARVKSFHNWPRCMKQRPEQMADAGFFYTGYGDNTKCFYCDGGLKDWEPEDVPWEQHVRWFDRCAYVQLVKGRDYVQKVITEACVLPGENTTVSTAAPVSEPIPETKIEKEPQVEDSKLCKICYVEECIVCFVPCGHVVACAKCALSVDKCPMCRKIVTSVLKVYFS", "notes": "range 1-275"}, "B5": {"name": "XIAP-BIR1: control protein consisting of the BIR1 domain of XIAP (protein)", "chain": "MTFNSFEGSKTCVPADINKEEEFVEEFNRLKTFANFPSGSPVSASTLARAGFLYTGEGDTVRCFSCHAAVDRWQYGDSAVGRHRKVSPNCRFINGFYLENSATQSTNSGIQNGQYKVENYLGS", "modifications": "left off: a dimerising Fc or GST"}}, "key": {"[1]": {"molecular_target": "GST-SfIAP (Spodoptera frugiperda)", "assay": "cell-based or functional assay"}, "[2]": {"molecular_target": "T1, CpIAP (Cydia pomonella granulosis virus, UniProt P41436)", "T1 construct": "The complete ORF of CpIAP was subcloned into the EcoRI-EcoRV sites of pcDNA3-myc or the EcoRI-SalI sites in pGEX4T-1; GST (N); made in house; host or cells: E. coli BL21 (DE3) containing pT-Trx", "T1 sequence (P41436 1-275)": "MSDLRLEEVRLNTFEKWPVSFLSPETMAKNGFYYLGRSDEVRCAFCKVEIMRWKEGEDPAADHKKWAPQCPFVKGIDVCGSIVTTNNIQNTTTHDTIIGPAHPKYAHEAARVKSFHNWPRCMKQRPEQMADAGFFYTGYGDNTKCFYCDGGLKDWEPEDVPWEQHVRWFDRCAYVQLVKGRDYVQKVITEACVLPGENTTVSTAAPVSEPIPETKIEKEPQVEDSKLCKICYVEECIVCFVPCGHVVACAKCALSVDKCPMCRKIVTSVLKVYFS", "assay": "Grim peptide effect on CpIAP inhibition of mammalian caspases in vitro", "format": "biochemical, baculovirus"}, "[3]": {"tested_on": "SfIAP", "assay": "Grim peptide effect on SfIAP-mediated suppression of caspases in cyto c-stimulated cell extracts", "format": "biochemical, Spodoptera frugiperda", "settings": "cyto c-stimulated cytosol extracts", "method": "(§1) Caspase activity was assayed by release of 7-amino-4-trifluoromethyl-coumarin (AFC) from Ac-DEVD or Ac-LEHD-containing synthetic peptides (Calbiochem) using continuous-reading instuments as described (Quan, L. T. et al., (1995) J. Biol. Chem. 270:10377-10379).\n(§2) Cytosolic extracts were prepared as described (Deveraux, Q., Takahashi, R., Salvesen, G. S. & Reed, J. C. (1997) Nature 388, 300-303) using human embryonic kidney (HEK) 293 cells. Cells were washed with ice-cold buffer A (20 mM HEPES pH 7.5, 10 mM KCl, 1.5 mM MgCl2, 1 mM EDTA and 1 mM DTT), suspended in 1 volume of buffer A, incubated on ice for 20 mins, and then disrupted by 15 passages through a 26-gauge needle. Cell extracts were purified by centrifugation at 15000 g for 12 mins and supernatants were stored at −80 ° C. For initiating caspase activation, either 100 nM of purified recombinant caspase-8 or 1 μM horse heart cytochrome c (Sigma) together with 1 mM dATP was added to extracts (Deveraux, Q. L., et al., (1998) EMBO J. 17, 2215-2223).\nIt has been proposed that Drosophila apoptosis-inducers such as Grim function as negative regulators of IAPs (Deveraux, Q. & Reed, J. C. (1998) Genes Dev. 13, 239-252; Wang, S. et al. (1999) Cell 98, 453-463). […]"}, "[4]": {"molecular_target": "B3", "assay": "in vitro binding with recombinant purified caspase; method not described"}, "[5]": {"molecular_target": "T2, recombinant purified caspase-7 (mammalian, UniProt P55210 24-303)", "T2 construct": "also called caspases-7", "T2 sequence": "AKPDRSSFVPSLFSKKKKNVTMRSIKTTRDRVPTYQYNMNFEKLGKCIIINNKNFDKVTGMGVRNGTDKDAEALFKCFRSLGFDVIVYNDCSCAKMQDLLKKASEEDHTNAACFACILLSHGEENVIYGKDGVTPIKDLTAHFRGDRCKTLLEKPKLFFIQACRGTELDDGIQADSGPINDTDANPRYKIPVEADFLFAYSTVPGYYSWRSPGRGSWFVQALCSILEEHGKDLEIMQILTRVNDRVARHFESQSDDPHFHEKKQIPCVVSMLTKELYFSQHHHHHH", "assay": "in vitro binding with recombinant purified caspase; method not described"}, "[6]": {"molecular_target": "recombinant active caspase-9 (caspase-9 lacking the CARD domain) (mammalian), P55211", "assay": "cell-based or functional assay"}, "[7]": {"molecular_target": "T3, [35S]pro-caspase-9 (mammalian, UniProt P55211 1-416, limits assumed)", "T3 construct": "also called in vitro-translated pro-caspase-9", "T3 sequence (looked up)": "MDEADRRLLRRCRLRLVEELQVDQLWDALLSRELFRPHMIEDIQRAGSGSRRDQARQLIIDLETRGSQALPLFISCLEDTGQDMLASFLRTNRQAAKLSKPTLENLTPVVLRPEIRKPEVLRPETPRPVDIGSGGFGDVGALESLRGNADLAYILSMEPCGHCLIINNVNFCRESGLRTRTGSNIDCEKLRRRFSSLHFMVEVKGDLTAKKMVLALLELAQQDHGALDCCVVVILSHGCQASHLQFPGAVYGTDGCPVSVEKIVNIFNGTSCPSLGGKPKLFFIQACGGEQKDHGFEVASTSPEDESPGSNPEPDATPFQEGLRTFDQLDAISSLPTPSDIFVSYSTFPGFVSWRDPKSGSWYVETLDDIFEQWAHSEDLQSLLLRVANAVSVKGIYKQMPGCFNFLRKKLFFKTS", "assay": "GST pull-down of in vitro-translated [35S]pro-caspase-9 on glutathione-Sepharose, SDS-PAGE and autoradiography"}, "[8]": {"molecular_target": "B4", "assay": "in vitro binding with recombinant purified caspase; method not described"}, "[9]": {"molecular_target": "T4, pro-caspase-9 (Homo sapiens, UniProt P55211)", "T4 construct": "host or cells: cell-free in vitro transcription/translation", "T4 sequence (P55211 1-416)": "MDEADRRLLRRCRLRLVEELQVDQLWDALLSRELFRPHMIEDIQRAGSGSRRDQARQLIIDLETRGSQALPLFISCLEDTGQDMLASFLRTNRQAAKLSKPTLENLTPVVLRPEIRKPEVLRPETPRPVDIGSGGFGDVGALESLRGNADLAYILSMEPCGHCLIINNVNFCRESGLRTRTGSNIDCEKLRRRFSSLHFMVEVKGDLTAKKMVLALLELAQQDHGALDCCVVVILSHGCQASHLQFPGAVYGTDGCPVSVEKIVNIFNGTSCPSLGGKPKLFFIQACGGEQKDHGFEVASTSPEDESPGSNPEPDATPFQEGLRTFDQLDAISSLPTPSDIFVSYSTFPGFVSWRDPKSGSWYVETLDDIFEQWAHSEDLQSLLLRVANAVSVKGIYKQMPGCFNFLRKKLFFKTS", "assay": "GST pull-down binding of [35S]-pro-caspase-9", "parameters": "species or system mammalian", "settings": "GST fusion protein on glutathione-Sepharose", "method": "[^35S]Pro-caspase-9 was in vitro transcribed and translated in the presence of [^35S]L-methionine using TNT kit from Promega. Protein were desalted and exchanged into buffer (20 mM HEPES pH 7.5, 10 mM KCl, 1.5 mM MgCl2, 1 mM EDTA and 1 mM DTT) with Bio-spin P-6 columns (Bio-Rad). […] After incubation at 4 ° C. for 1 hour, beads were removed by centrifugation and washed twice with 0.5 ml of 50 mM Tris (pH 7.5), 150 mM NaCl, 2 mm DTT before analysis by SDS-PAGE and autoradiography."}, "[10]": {"tested_on": "caspase-3 and similar DEVD-cleaving proteases in cell extracts treated with cyto c", "assay": "Cell-free caspase activation induced by cyto c in HEK 293 cytosolic extracts", "format": "biochemical, human", "settings": "recombinant protein, cell extracts treated with cyto c", "method": "as §1, §2\nTo further explore the mechanisms by which SfIAP and CpIAP inhibit mammalian apoptosis, a cell-free system in which exogenously added active caspase-8 or cyto c induces activation of caspase-3 and similar proteases, as measured by hydrolysis of Ac-DEVD-AFC (Quan, L. T. et al., (1995) J. Biol. Chem. 270, 10377-10379) was used. Caspase-8 and cyto c trigger the same apoptosis pathways in extracts which are activated by Fas and Bax in intact cells."}}, "note": "Entries after “also recorded” stand apart in the source; their conditions may differ."}
{"molecule": "Grim peptide (IAP-binding domain of Grim, first 18 amino acids) (from UniProt Q24570 1-18)", "values": [{"measurement": "restoration of DEVD-cleaving caspase activity in cyto c-stimulated cell extracts suppressed by SfIAP", "setting": "[1]", "value": 5, "unit": "fold excess"}]}
{"molecule": "Grim peptide: peptide corresponding to the IAP-binding domain of Grim (first 18 amino acid of Grim) (MAIAYFIPDQAQLLARSY; UniProt Q24570 1-18, looked up, fragment)", "values": [{"measurement": "effect on ability of CpIAP to inhibit mammalian caspases", "setting": "[2]", "value": "negate the ability of SfIAP and CpIAP to inhibit mammalian caspases"}, {"measurement": "effect on SfIAP inhibition of cyto c-induced activation of DEVD-cleaving caspases", "setting": "[3]", "value": "abrogated this inhibitory effect of SfIAP in a concentration-dependent manner; also recorded: negate the ability of SfIAP and CpIAP to inhibit mammalian caspases"}, {"measurement": "excess of peptide relative to SfIAP resulting in complete restoration of caspase activity", "setting": "[3]", "value": 5, "unit": "fold"}]}
{"molecule": "B1", "values": [{"measurement": "binding result", "setting": "[4]", "value": "no binding"}, {"measurement": "binding result", "setting": "[5]", "value": "no binding"}, {"measurement": "molar-excess relative to caspase-9 which produced ~50% inhibition of protease activity (Ac-LEHD-AFC substrate) (fold molar excess)", "setting": "[6]", "value": 8}]}
{"molecule": "B2", "values": [{"measurement": "binding result", "setting": "[7]", "value": "no binding"}]}
{"molecule": "B3", "values": [{"measurement": "binding result", "setting": "[8]", "value": "no binding"}]}
{"molecule": "B4", "values": [{"measurement": "binding result", "setting": "[5]", "value": "no binding"}]}
{"molecule": "B5", "values": [{"measurement": "binding to pro-caspase-9 (autoradiography)", "setting": "[9]", "value": "failed to bind caspase-9"}, {"measurement": "effect on hydrolysis of Ac-DEVD-AFC (caspase activity)", "setting": "[10]", "value": "did not interfere with caspase activity"}]}
